Reference: publication PMC6427009 (Scientific Reports, 2019)

Target: Hemagglutinin of Influenza A/California/07/2009 (H1N1) (Influenza A/California/07/2009 (H1N1), UniProt C3W5X2, fully glycosylated (7 glycosylation sites))
Assay: HDX-MS
Settings: both partners purified

B1: llama single-domain antibody SD38 (VHH)
VHH: EVQLVESGGGLVQPGGSLRLSCAVSISIFDIYAMDWYRQAPGKQRDLVATSFRDGSTNYADSVKGRFTISRDNAKNTLYLQMNSLKPEDTAVYLCHVSLYRDPLGVAGGMGVYWGKGALVTVSS
notes: also called Llama single domain SD38
binding result: binds
